The results in this text go back to patent US20240173352A1 (A2 BIOTHERAPEUTICS, published 2024).

This test deals with HLA-A*02 (on target cells) (human). Put plainly: cell-based or functional assay.

For the molecule VLHDDLLEA [HA-1(H) peptide], the “EC50 right shift of the NY-ESO-1 TCR by 50 uM HA-1(H) peptide” value is around 30 fold.
